Reference: the supplement of paper PMC10567573

B1: ZBED2 (parent)
chain: FHLAPARAGHHPNQYATCRLCGRQ
B2: STEAP1 (parent)
chain: WMLTRKQFGLLSFFFAVLHAIYSL

Variants of: B1
Assay: protein stability index of a GFP-peptide fusion (GPS, HEK-293T) (PSI 1-6); higher = more stable
Details: c terminus: a fixed tail appended
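Further: lentivirally expressed fusions sorted by FACS into six bins by GFP to DsRed ratio, PSI derived from sequencing read proportions per bin multiplied by bin number.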

Protein stability index, by site and new letter:
G22: A 1.03; Q 1.82; I 2.08; Y 2.12; P 2.92; F 1.95; M 1.21; E 1.93; L 2.57; C 2.87; H 2.05; W 1.7; N 1.56; T 2.82
Y15: K 1.53; C 1.44; I 1.63; P 1.07; F 2.54; R 1.15; Q 2.65; H 2.14; V 1.57; E 2.43
R19: A 1.93; Q 2.36; H 2.05; G 2.11; V 2.78; T 1.81; W 1.3; K 3.11; E 1.7; N 1.52; S 1.92; F 1.64; Y 1.16
C18: F 1.93; Q 2.87; P 2.9; Y 1.93; K 2.22; M 1.93; I 2.17; N 3.56; W 1.97; A 2.12; V 2.25; S 2.4; H 2.27; L 1.42; E 3.08; T 2.87
P12: C 2.67; L 2.12; S 2.23; G 2.48; W 1.52; I 1.95; A 1.5; V 1.49; Y 1.47; H 3.06; F 2.1
R23: F 2.1; I 1.93; W 2.46; K 1.37; D 2; S 1.52; M 1.81; C 1.32; Q 2.43; N 2.07; A 1.85; E 1.54; Y 1.83
A16: T 2.3; L 1.42; K 1.03; Y 2.9; G 1.59; P 2.4; I 2.69; E 1.93; M 1.61; S 1.82; H 2.27; C 2.85; N 2.38; F 2.37
T17: C 1.68; L 1.25; N 1.99; Y 2.15; F 2.23; P 1.69; D 2.85; G 2.76; K 1.72; I 1.55; S 2.47; M 2.42; E 1.73
Q24: Y 1.53; T 1.65; V 1.7; C 1.84; P 1.91; S 2.03; A 1.9; G 2.41; L 2.19; F 3.46; M 1.24; E 2.12; H 2
C21: P 2.59; A 3.59; W 2.1; Y 1.73; N 1.96; T 2.72; I 1.74; F 1.97; S 3.43; M 1.26; H 2.52; L 1.95; Q 2.08; K 2.31
Q14: P 2.48; K 2.58; C 2.11; E 2.16; T 1.47; D 1.99; Y 2.31; S 1.48
H11: W 1.04
L20: H 1.55; V 2.27; N 1.31; C 1.54; R 1.92; Q 1.18; D 1.27; Y 3.71; S 2.22; M 1.94; F 2.4; P 2.23; G 2.82; T 1.82
N13: Q 1.98; C 2.97; E 3.21; M 1.52; D 1.43; A 2.34; T 1.52; K 1.77; I 1.42; Y 1.55

Variants of: B2
Assay: as above
Details: c terminus: a fixed tail appended

Protein stability index: each site, then its substitutions
L10: F 1.85; G 2; D 2.52; A 1.76; C 1.98; E 2.17; H 2.09
G9: V 1.83; K 2.04; E 1.99; D 3.04; N 1.46; Q 2.07; L 1.89; T 1.25; A 2.27; W 2.24; R 2.97; C 1.89; M 2.12; H 2; I 1.83; Y 2.75; F 1.94; S 1.98
L3: Y 2.06; G 1.76; W 1.73; T 2.36; R 1.71; K 1.71; V 1.52; D 2.93; F 2.74; E 1.57; P 2.27; N 2.1; M 2.22; C 3.54; I 2.59; A 1.73; Q 2.05; H 2.09; S 1.66
F8: S 1.84; K 1.67; C 1.67; Y 1.84; W 1.88; I 1.5; N 1.73; A 1.74; M 1.94; R 2.31; Q 2.11; T 3.12; V 2.14; L 2.04; P 1.64; G 1.18; E 1.64; D 2.31; H 2.16
M2: R 1.9; S 1.52; L 1.97; D 1.58; I 1.64; N 2.18; A 1.74; E 2.08; K 1.78; V 1.85; F 1.73; Y 1.99; Q 1.77; G 1.46; P 2.23; H 1.7; C 1.49; T 1.94; W 1.75
R5: C 1.52; G 2.29; P 2.2; F 2.14; E 2.03; A 1.04; S 2.07; Q 2.21; K 1.52; T 3.62; H 3.39; W 2.1; D 1.96; Y 2.77; M 2.47; N 2.12
K6: T 2.08; F 1.79; R 1.88; C 2.16; N 2.32; E 2.56; Q 2.48; V 3.54; Y 3.86; D 1.18; M 2.07; L 3.1; P 1.8; S 2.85; H 3.26
Q7: L 1.94; S 1.52; W 1.86; T 2.17; P 1.45; C 1.82; I 1.61; E 1.21; H 2.53; V 3.1; Y 2.28; N 2.23; M 3.42; A 2.49; K 1.8; F 1.47; R 1.7; D 2.01; G 1.78
T4: R 1.59; K 2.13; N 1.99; C 1.8; W 1.89; Y 1.41; A 1.28; V 1.92; H 1.6; L 2.77; F 2.31; I 2.3; S 1.62; G 1.63; Q 2.35; M 1.69; P 1.7; E 1.1; D 1.66
W1: P 2.13; D 2.04; E 1.58; Y 2.37; T 2.75; G 1.91; N 2.35; L 2.24; Q 1.85; H 2.1; F 1.71; K 1.63; R 2.01; C 1.82; S 1.58; V 2.18; I 2.44; A 1.91; M 1.88
